Data from the supplement of paper PMC10567573.
± gives the standard deviation.

Experiment: protein stability index of a GFP-peptide fusion (GPS, HEK-293T) (PSI 1-6); higher = more stable
Conditions: c terminus: a fixed tail appended
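Further: 24-mer peptide tiles fused after GFP, lentivirally expressed, FACS-sorted into six equal bins by GFP/DsRed ratio, decoded by Illumina sequencing, PSI is the read-weighted mean bin number.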

Sequence | protein stability index (treatment: DMSO) | protein stability index (treatment: MLN4924 1 uM, 8 h)
RVQSVDFMRTDPVCQKLLLDAMNY [KLHL14] | 2.74 ± 0.2 | 2.64 ± 0.22
RDKAKMRNLETQHKVLELTAENER [CEBPB] | 4.9 ± 0.2 | 5.24 ± 0.24
RKLLESEECRMSGEFPSPVSISII [KRT71] | 2.42 ± 0.42 | 2.19 ± 0.19
AAWCLHHICTNYNSVCSKFRKEIK [RHOBTB1] | 2.23 ± 0.037 | 2.19 ± 0.28
LVGDSDVGKGEILESLQDGAAESP [RAB40C] | 5.35 ± 0.27 | 5.39 ± 0.3
QFTKPNASLGDVQSGATISMPCST [SASS6] | 4.14 ± 0.38 | 4.06 ± 0.69
AVIKSNHSYCRMFLQRGADTNLGR [ASB7] | 2.26 ± 0.16 | 2.41 ± 0.14
SWSQYEMPEFSSDSTMRILSNLVQ [RTP4] | 2.48 ± 0.24 | 2.59 ± 0.3
KTVSLQIFSVLNSDDAAAPALETQ [SMOC2] | 3.2 ± 0.59 | 3.56 ± 0.38
QRDEQLRALQERLGQQQRDMRRDE [FBF1] | 5.39 ± 0.28 | 5.33 ± 0.31
GREYPDAQGFAADVRLMFSNCYKY [BRD3] | 2.38 ± 0.21 | 2.59 ± 0.29
RKEAYGKPVDIWACGVILYILLVG [CAMK2B] | 2.95 ± 0.76 | 2.73 ± 0.7
NRRDVEAWFFSKTEELNKEVASNT [KRT15] | 4.05 ± 0.26 | 4.12 ± 0.23
FDGTAHLSSVEAYNIRTDSWTTVT [KLHL12] | 2.58 ± 0.38 | 2.62 ± 0.52
